Consider one protein from ChEMBL document CHEMBL6127040, “Discovery and optimization of isoliquiritigenin as a death-associated protein kinase 1 inhibitor” (Eur J Med Chem, 2024).

Conditions in all cases: Homo sapiens; time 1.0 hrs
Substrate in series [1]: O=C(/C=C/c1ccc(O)cc1)c1ccc(O)cc1O
Description: (§1) Binding affinity to DAPK1 (unknown origin) assessed as catalytic rate incubated for 1 hr in presence of ATP by malachite green assay (Rvb = 3.0 +/- 0.15 /min)
Substrate in series [2]: COc1cc(/C=C/C(=O)c2ccc(O)cc2O)ccc1O
Description: as §1
Substrate in series [3]: O=C(/C=C/c1ccc(O)c(O)c1)c1ccc(O)cc1O
Description: as §1
Substrate in series [4]: C=CCc1cc(/C=C/C(=O)c2ccc(O)cc2O)ccc1O
Description: as §1
Substrate in series [5]: CCCc1cc(/C=C/C(=O)c2ccc(O)cc2O)ccc1O
Description: as §1
Substrate in series [6]: Cc1cc(O)ccc1/C=C/C(=O)c1ccc(O)cc1O
Description: as §1
Substrate in series [7]: O=C(/C=C/c1ccc(O)cc1)c1ccc(O)cc1O
This is another data set of the same source.

Substrate in series [8]: COc1cc(/C=C/C(=O)c2ccc(O)cc2O)ccc1O
The source holds these as a separate data set.

Substrate in series [9]: O=C(/C=C/c1ccc(O)c(O)c1)c1ccc(O)cc1O
The source holds these as a separate data set.

Substrate in series [10]: C=CCc1cc(/C=C/C(=O)c2ccc(O)cc2O)ccc1O
The source holds these as a separate data set.

Substrate in series [11]: CCCc1cc(/C=C/C(=O)c2ccc(O)cc2O)ccc1O
The source holds these as a separate data set.

Substrate in series [12]: Cc1cc(O)ccc1/C=C/C(=O)c1ccc(O)cc1O
This is another data set of the same source.

Substrate in series [13]: O=C(/C=C/c1ccc(O)cc1)c1ccc(O)cc1O
The source holds these as a separate data set.

Substrate in series [14]: COc1cc(/C=C/C(=O)c2ccc(O)cc2O)ccc1O
The source holds these as a separate data set.

Substrate in series [15]: O=C(/C=C/c1ccc(O)c(O)c1)c1ccc(O)cc1O
The source holds these as a separate data set.

Substrate in series [16]: C=CCc1cc(/C=C/C(=O)c2ccc(O)cc2O)ccc1O
The source holds these as a separate data set.

Substrate in series [17]: CCCc1cc(/C=C/C(=O)c2ccc(O)cc2O)ccc1O
This is another data set of the same source.

Substrate in series [18]: Cc1cc(O)ccc1/C=C/C(=O)c1ccc(O)cc1O
The source holds these as a separate data set.

B1: Death-associated protein kinase 1 (Homo sapiens), P53355 (protein)
chain: MTVFRQENVDDYYDTGEELGSGQFAVVKKCREKSTGLQYAAKFIKKRRTKSSRRGVSREDIEREVSILKEIQHPNVITLHEVYENKTDVILILELVAGGELFDFLAEKESLTEEEATEFLKQILNGVYYLHSLQIAHFDLKPENIMLLDRNVPKPRIKIIDFGLAHKIDFGNEFKNIFGTPEFVAPEIVNYEPLGLEADMWSIGVITYILLSGASPFLGDTKQETLANVSAVNYEFEDEYFSNTSALAKDFIRRLLVKDPKKRMTIQDSLQHPWIKPKDTQQALSRKASAVNMEKFKKFAARKKWKQSVRLISLCQRLSRSFLSRSNMSVARSDDTLDEEDSFVMKAIIHAINDDNVPGLQHLLGSLSNYDVNQPNKHGTPPLLIAAGCGNIQILQLLIKRGSRIDVQDKGGSNAVYWAARHGHVDTLKFLSENKCPLDVKDKSGEMALHVAARYGHADVAQLLCSFGSNPNIQDKEEETPLHCAAWHGYYSVAKALCEAGCNVNIKNREGETPLLTASARGYHDIVECLAEHGADLNACDKDGHIALHLAVRRCQMEVIKTLLSQGCFVDYQDRHGNTPLHVACKDGNMPIVVALCEANCNLDISNKYGRTPLHLAANNGILDVVRYLCLMGASVEALTTDGKTAEDLARSEQHEHVAGLLARLRKDTHRGLFIQQLRPTQNLQPRIKLKLFGHSGSGKTTLVESLKCGLLRSFFRRRRPRLSSTNSSRFPPSPLASKPTVSVSINNLYPGCENVSVRSRSMMFEPGLTKGMLEVFVAPTHHPHCSADDQSTKAIDIQNAYLNGVGDFSVWEFSGNPVYFCCYDYFAANDPTSIHVVVFSLEEPYEIQLNQVIFWLSFLKSLVPVEEPIAFGGKLKNPLQVVLVATHADIMNVPRPAGGEFGYDKDTSLLKEIRNRFGNDLHISNKLFVLDAGASGSKDMKVLRNHLQEIRSQIVSVCPPMTHLCEKIISTLPSWRKLNGPNQLMSLQQFVYDVQDQLNPLASEEDLRRIAQQLHSTGEINIMQSETVQDVLLLDPRWLCTNVLGKLLSVETPRALHHYRGRYTVEDIQRLVPDSDVEELLQILDAMDICARDLSSGTMVDVPALIKTDNLHRSWADEEDEVMVYGGVRIVPVEHLTPFPCGIFHKVQVNLCRWIHQQSTEGDADIRLWVNGCKLANRGAELLVLLVNHGQGIEVQVRGLETEKIKCCLLLDSVCSTIENVMATTLPGLLTVKHYLSPQQLREHHEPVMIYQPRDFFRAQTLKETSLTNTMGGYKESFSSIMCFGCHDVYSQASLGMDIHASDLNLLTRRKLSRLLDPPDPLGKDWCLLAMNLGLPDLVAKYNTSNGAPKDFLPSPLHALLREWTTYPESTVGTLMSKLRELGRRDAADFLLKASSVFKINLDGNGQEAYASSCNSGTSYNSISSVVSR
For the protein B1, the kcat in series [1] was 2.9 min⁻¹; in series [2] it was 2.3 min⁻¹; in [3], 2.2 min⁻¹; in [4] it was 1.5 min⁻¹; in series [5], 2.1 min⁻¹; in series [6], 2.3 min⁻¹. Besides, the Km in series [7] came out at 43 µM; in series [8], 59 µM; in series [9] it was 60 µM; in series [10] it was 21 µM; in series [11], 28 µM; in series [12], 48 µM. In addition, the kcat/Km in series [13] amounted to 0.036 min⁻¹ µM⁻¹; in [14], 0.025 min⁻¹ µM⁻¹; in series [15], 0.025 min⁻¹ µM⁻¹; in series [16], 0.068 min⁻¹ µM⁻¹; in [17], 0.035 min⁻¹ µM⁻¹; in series [18], 0.039 min⁻¹ µM⁻¹.
